Laboratory results from patent US20030032072A1, “Method for the assessment of allergenicity” (Novozymes A/S, priority 1999, published 2003).

Key:
[1] = tested on: Human lung epithelial cells (BEAS-2B, ATCC # CRL-9609); assay: Bioassay: extracellular cytokine expression of epithelial cells, assessed by ELISA; type: cell-based
Experimental: Human lung epithelial cells (BEAS-2B, ATCC # CRL-9609) were inoculated in a culture flask (NUNC), precoated with 2% (vol/vol) Ultroser G in water, at 1500 to 3000 cells per cm^2, and were grown at 37° C. in LHC-9 medium containing 2% (vol/vol) Ultroser G and 5% CO2.
The cells were subcultured before reaching confluence. The medium was removed, and fresh 0.5% polyvinylpyrrolidone (PVP) in trypin (0.25% (wt/vol))-EDTA (0.03% (wt/vol)) solution was added until cells detached (usually after 5-10 minutes at room temperature). LHC-9 medium was added, and cells were collected by centrifugation (300× g for 15 minutes), and resuspended in LHC-9 medium containing 2% (vol/vol) Ultroser G. Finally, cells were dispensed into precoated flasks (NUNC) at a density of 1500 to 3000 cells per cm^2.
When enough cells were available to perform the planned number of assays, cells were trypinated, and were transferred to a 24-well culture plate (NUNC) (1×10^5 cells per well). Incubation was for 24 hours at 37° C. in LHC-9 medium containing 2% (vol/vol) Ultroser G and 5% CO2. […]
The extracellular expression of selected cytokines was assessed by ELISA (R&D Systems), as a function of incubation time and protein concentration. […] A calibration curve was included each time, to include quantification of the detected cytokine levels, as well as to assess assay reproducibility.

Brown Norway rats = assay: Intratracheal immunization of Brown Norway rats, IgE ELISA; type: in vivo, rat; settings: rats immunized intratracheally, IgE detected by ELISA, Example 5
Experimental: Twenty intratracheal immunizations were performed weekly with 100 microliters 0.9% (wt/vol) NaCl (control group), or 100 microliters of the protein dilution mentioned before. Each group contained 10 rats. Blood samples (2 ml) were collected from the eye one week after every second immunization. Serum was obtained by blood clothing, and centrifugation.
The IgE ELISA was performed by using the following: Buffers and Solutions:
Mouse anti-Rat IgE was diluted 200×in PBS (5 micrograms/ml). 100 microliters were added to each well. The plates were coated overnight at 4° C.
Unspecific adsorption was blocked by incubating each well for 1 hour at room temperature with 200 microliters blocking buffer. The plates were washed 3×with 300 microliters washing buffer.
Unknown rat sera and a known rat IgE solution were diluted in dilution buffer: Typically 10×, 20×and 40×for the unknown sera, and ½ dilutions for the standard IgE starting from 1 microgram/ml. 100 microliters were added to each well. […]
The reaction was stopped by adding 100 microliters H2SO4. The plates were read at 492 nm with 620 nm as reference.
Rats were immunized intratracheally with unmodified and modified protease, and the protease specific IgE levels were detected by ELISA. The IgE levels detected throughout the study were integrated, and compared relative to the levels observed in rats immunized with unmodified enzyme.

Row | Molecule | effect on cytokine production ([1]; PMSF (10 mM) and its hydrolysis products, diluted about 1000× before being applied on the cells) | level of all cytokines (normalized cytokine levels, FIG. 5) ([1]; epithelial cell assay, Example 5) | IgE level in rats (Brown Norway rats)
1 | O=S(=O)(F)Cc1ccccc1 [PMSF, reference compound] | no detectable effect |  | 
2 | lipase: triacylglycerol acylhydrolase (lipase) E.C. 3.1.1.3 from Humicola lanuginosa (protein, UniProt O59952 23-291, looked up) Lipase: EVSQDLFNQFNLFAQYSAAAYCGKNNDAPAGTNITCTGNACPEVEKADATFLYSFEDSGVGDVTGFLALDNTNKLIVLSFRGSRSIENWIGNLNFDLKEINDICSGCRGHDGFTSSWRSVADTLRQKVEDAVREHPDYRVVFTGHSLGGALATVAGADLRGNGYDIDVFSYGAPRVGNRAFAEFLTVQTGGTLYRITHTNDIVPRLPPREFGYSHSSPEYWIKSGTLVPVTRNDIVKIEGIDATGGNNQPNIPDIPAHLWYFGLIGTCL |  | high level | significantly lower IgE level
